Two molecules from patent US20220227872A1 (published 2022) can be followed below.

Experiment [1] has as its target T1, hTEM1-SpyC (human TEM1 extracellular domain fused to SpyCatcher) (UniProt Q9HCU0 18-687, covalently bound to biotinylated SpyTag peptide (bSpyT)).
T1 chain: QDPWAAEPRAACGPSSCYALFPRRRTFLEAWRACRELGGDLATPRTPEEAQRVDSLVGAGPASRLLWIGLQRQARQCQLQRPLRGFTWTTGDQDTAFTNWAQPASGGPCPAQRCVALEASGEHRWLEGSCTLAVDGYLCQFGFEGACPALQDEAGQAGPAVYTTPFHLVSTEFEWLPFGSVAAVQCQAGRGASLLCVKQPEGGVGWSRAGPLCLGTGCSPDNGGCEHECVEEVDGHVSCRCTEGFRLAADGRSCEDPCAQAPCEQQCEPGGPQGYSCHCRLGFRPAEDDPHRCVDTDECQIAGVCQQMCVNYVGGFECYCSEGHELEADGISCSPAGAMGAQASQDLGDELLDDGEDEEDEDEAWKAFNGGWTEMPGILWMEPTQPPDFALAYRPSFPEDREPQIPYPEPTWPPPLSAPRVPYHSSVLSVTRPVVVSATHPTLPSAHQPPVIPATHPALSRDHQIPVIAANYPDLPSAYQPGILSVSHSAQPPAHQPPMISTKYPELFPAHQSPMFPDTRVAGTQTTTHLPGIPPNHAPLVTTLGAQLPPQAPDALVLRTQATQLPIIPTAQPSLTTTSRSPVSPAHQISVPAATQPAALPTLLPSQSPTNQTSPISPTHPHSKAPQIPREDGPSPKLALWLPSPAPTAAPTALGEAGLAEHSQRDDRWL
In words: SPR; BiTE analyte, hTEM1-SpyC immobilized.

Experiment [2] deals with 1C1 BiTE. In words: SPR; BiTE analyte, hTEM1-SpyC immobilized. (In SPR one partner is held on a chip, and binding of the other changes the refractive index at the surface.)

B1: 1C1mut BiTE (1C1mut scFv fused to an scFv derived from anti-CD3 clone UCHT1) (bispecific antibody, V domains shown)
VH: QVQLVQSGAEVKKPGSSVKVSCKASGGTFSSYAISWVRQAPGQGLEWMGGIIPIFGTANYAQKFQGRVTITADKSTSTAYMELSSLRSEDTAVYYCASLISYYGDPTGFDYWGQGTLVTVSS
VL: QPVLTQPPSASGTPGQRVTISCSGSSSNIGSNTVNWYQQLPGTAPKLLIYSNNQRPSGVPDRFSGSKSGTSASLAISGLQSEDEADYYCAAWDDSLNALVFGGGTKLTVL
With B1, the Kd (in general, the constant that tells how readily two partners part at equilibrium) in experiment [1] was roughly 1 nM.

B2: hTEM1-SpyC (other)
chain: QDPWAAEPRAACGPSSCYALFPRRRTFLEAWRACRELGGDLATPRTPEEAQRVDSLVGAGPASRLLWIGLQRQARQCQLQRPLRGFTWTTGDQDTAFTNWAQPASGGPCPAQRCVALEASGEHRWLEGSCTLAVDGYLCQFGFEGACPALQDEAGQAGPAVYTTPFHLVSTEFEWLPFGSVAAVQCQAGRGASLLCVKQPEGGVGWSRAGPLCLGTGCSPDNGGCEHECVEEVDGHVSCRCTEGFRLAADGRSCEDPCAQAPCEQQCEPGGPQGYSCHCRLGFRPAEDDPHRCVDTDECQIAGVCQQMCVNYVGGFECYCSEGHELEADGISCSPAGAMGAQASQDLGDELLDDGEDEEDEDEAWKAFNGGWTEMPGILWMEPTQPPDFALAYRPSFPEDREPQIPYPEPTWPPPLSAPRVPYHSSVLSVTRPVVVSATHPTLPSAHQPPVIPATHPALSRDHQIPVIAANYPDLPSAYQPGILSVSHSAQPPAHQPPMISTKYPELFPAHQSPMFPDTRVAGTQTTTHLPGIPPNHAPLVTTLGAQLPPQAPDALVLRTQATQLPIIPTAQPSLTTTSRSPVSPAHQISVPAATQPAALPTLLPSQSPTNQTSPISPTHPHSKAPQIPREDGPSPKLALWLPSPAPTAAPTALGEAGLAEHSQRDDRWL
modifications: covalently bound to biotinylated SpyTag peptide (bSpyT)
Consider B2, for which the Kd in experiment [2] is roughly 68 nM.
